Measured values reported in publication PMC6770577 (2019).
No end group written: not given here. *: point of attachment. FITC = O=C1OC2(c3ccc(O)cc3Oc3cc(O)ccc32)c2ccc(NC(=S)*)cc21

Experiments:
CaM = CaM (Homo sapiens, UniProt P0DP23); assay: steady-state fluorescence anisotropy
S100A1 = molecular target: T1, S100A1 (Homo sapiens, UniProt P23297); assay: steady-state fluorescence anisotropy
T1 chain: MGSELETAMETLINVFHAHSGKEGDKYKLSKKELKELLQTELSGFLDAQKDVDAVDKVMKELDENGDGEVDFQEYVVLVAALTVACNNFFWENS

Kd (CaM): 14.9 µM
Kd (S100A1): 17.8 µM
Binder: {FITC}-LIGRAYRSNYTRKHFR [TRPM6np]
